No end group written: not given here.
Legend:
[1] = tested on: A2t (annexin A2 heterotetramer); assay: EPR binding of L2 peptide to A2t; set-up: species or system human; settings: scrambled competitor 5∶1 molar ratio
Excerpt: Next, we wanted to determine if there was a specific interaction between the L2_108–126 peptide and A2t using electron paramagnetic resonance (EPR) spectroscopy. EPR is a method of magnetic resonance spectroscopy measuring unpaired electrons whose underlying basic concepts are not unlike the more widely used technique of nuclear magnetic resonance (NMR) (reviewed in [43]). When coupled with site-directed paramagnetic-labeling, such as the attachment of a moiety with an unpaired electron to a cysteine residue, EPR can be used to obtain structural information within a small vicinity of the paramagnetic-label’s positions along the protein sequence. As a paramagnetic-label becomes locally constrained, such as when bound to another protein, its spectra will drastically change as visualized by a decrease in line amplitude and increased line-broadening. Therefore, EPR provides an in vitro biochemical method that measures protein-protein interactions by monitoring changes in the spectra recorded for a labeled protein in different experimental settings.
For our purposes, an N-terminal cysteine (with a 3 native aa spacer) contained in the L2_108–126 peptide (C-IVS-[…]) was paramagnetic-labeled (an unpaired-electron-containing small molecule was cross-linked via a disulfide bond to the peptide), and its spectra were analyzed after incubation with and without purified human recombinant A2t or controls. […]
Recombinant annexin A2 was expressed in BL21(DE3) Escherichia coli cells and purified using reversible Ca^2+-dependent binding to negatively charged phospholipid vesicles followed by size exclusion chromatography. […] Concentrations of all proteins and peptides, including the A2t complex, were determined using bicinchoninic acid assays (Pierce Thermo Scientific, Rockford, IL) compared to measured absorbance of albumin standards at 562 nm. […]

[2] = tested on: annexin A2; assay: EPR binding of L2 peptide to annexin A2; settings: scrambled competitor 5∶1
Description: (§1) Recombinant annexin A2 was expressed in BL21(DE3) Escherichia coli cells and purified using reversible Ca^2+-dependent binding to negatively charged phospholipid vesicles followed by size exclusion chromatography. A pET23A vector containing the S100A10 sequence (a gift from Volker Gerke) was expressed in BL21(DE3) cells as previously described. Both proteins were stored at 4°C in 20 mM HEPES buffer at pH 7.4, containing 100 mM NaCl with the addition of 1 mM dithiothreitol. Concentrations of all proteins and peptides, including the A2t complex, were determined using bicinchoninic acid assays (Pierce Thermo Scientific, Rockford, IL) compared to measured absorbance of albumin standards at 562 nm. Purified annexin A2 and S100A10 were combined at a molar ratio of 1∶1 and concentrated to over 8 µg/µl. The mixture was incubated overnight at 4°C, and then loaded onto a superdex 200 10/300 GL (GE Healthcare USA) column equilibrated in the previously mentioned HEPES buffer. The eluted A2t peak was collected and subjected to peptide binding assays.
The L2_108–126 peptides used in our EPR studies were synthesized with a cysteine at the N-terminus, and followed by a spacer of 3 physiological amino acids (C-IVS) preceding the canonical L2_108–126 and L2 scrambled sequences (C-IVS-[…] and C-IVS-[…] respectively). Peptides were combined with 8× molar excess paramagnetic label (1-oxyl-2, 2, 5, 5-tetramethyl-Δ3-pyrroline-3-methyl) (R1) methanethiosulfonate (MTSL), (Toronto Research Chemicals, Canada) and left to react overnight at 4°C. Free label was removed by gel filtration (PD10 GE, United Kingdom). All peptides were solubilized into HEPES buffer. For competition assays, the scrambled peptide was non-paramagnetic labeled with an N-acetylated MTSL paramagnetic-label analog (1-acetyl-2,2,5,5- tetramethyl-Δ3-pyrroline-3-methyl) (R1′) at an 8× molar excess to emulate the paramagnetic label on control peptides. Binding interactions were examined by combining paramagnetically-labeled L2 peptide with A2t, BSA, ANXA2, or S100A10 (20 µM, 100 µM, 100 µM, 100 µM, and 100 µM respectively) in 10 µL volumes of the HEPES buffer, confined by glass capillaries, and measured at room temperature over a period of 24 hours using a Bruker EMX X-band EPR spectrometer. For the cysteine blocked S100A10, S100A10 was treated with R1′ and excess label was removed via gel filtration (see above) before the addition of paramagnetic labeled peptides. […] To quantify the amount of bound peptide spectra of all tested proteins in combination with the L2_108–126 or ScrL2 peptides were compared to the spectra of L2_108–126 or ScrL2 peptides alone in solution using a spectra analyzing software (EPR 130, University of California, Los Angeles). […]

[3] = tested on: S100A10 subunit of A2t; assay: EPR binding of L2 peptide to S100A10; settings: EPR
Description: as §1
The L2_108–126 peptides used in our EPR studies were synthesized with a cysteine at the N-terminus, and followed by a spacer of 3 physiological amino acids (C-IVS) preceding the canonical L2_108–126 and L2 scrambled sequences (C-IVS-[…] and C-IVS-[…] respectively). Peptides were combined with 8× molar excess paramagnetic label (1-oxyl-2, 2, 5, 5-tetramethyl-Δ3-pyrroline-3-methyl) (R1) methanethiosulfonate (MTSL), (Toronto Research Chemicals, Canada) and left to react overnight at 4°C. Free label was removed by gel filtration (PD10 GE, United Kingdom). All peptides were solubilized into HEPES buffer. For competition assays, the scrambled peptide was non-paramagnetic labeled with an N-acetylated MTSL paramagnetic-label analog (1-acetyl-2,2,5,5- tetramethyl-Δ3-pyrroline-3-methyl) (R1′) at an 8× molar excess to emulate the paramagnetic label on control peptides. Binding interactions were examined by combining paramagnetically-labeled L2 peptide with A2t, BSA, ANXA2, or S100A10 (20 µM, 100 µM, 100 µM, 100 µM, and 100 µM respectively) in 10 µL volumes of the HEPES buffer, confined by glass capillaries, and measured at room temperature over a period of 24 hours using a Bruker EMX X-band EPR spectrometer. For the cysteine blocked S100A10, S100A10 was treated with R1′ and excess label was removed via gel filtration (see above) before the addition of paramagnetic labeled peptides. The experiments were done in triplicate with measurements taken at 12 db, in 5 scan intervals. All spectra were normalized to the same number of scans. To quantify the amount of bound peptide spectra of all tested proteins in combination with the L2_108–126 or ScrL2 peptides were compared to the spectra of L2_108–126 or ScrL2 peptides alone in solution using a spectra analyzing software (EPR 130, University of California, Los Angeles). By subtracting the alone peptide spectra from that of the combined samples we derive the spectra of the bound spectra, and based on double integration, relate this spectra to a concentration of the peptide that bound to the target protein.

[4] = tested on: HPV16 infection of COS-1 cells; settings: pre-incubation, compared to control peptides; ref [28]; cited from earlier work
Excerpt: Though the interaction between L1 and HSPG appears to be the primary initiator of epithelial cell infection, the electrostatic interaction to the negatively charged polysaccharides is generally thought to be non-specific, and may lead to a cascade of subsequent capsid conformational changes.

[5] = biological target: T1, annexin A2 heterotetramer (A2t), purified human recombinant (human, UniProt P07355 1-339; P60903 1-97); assay: electron paramagnetic resonance (EPR) spectroscopy; settings: both partners purified
T1 construct: also called A2t complex
T1 sequence (P07355 whole entry, chain 1 of 2): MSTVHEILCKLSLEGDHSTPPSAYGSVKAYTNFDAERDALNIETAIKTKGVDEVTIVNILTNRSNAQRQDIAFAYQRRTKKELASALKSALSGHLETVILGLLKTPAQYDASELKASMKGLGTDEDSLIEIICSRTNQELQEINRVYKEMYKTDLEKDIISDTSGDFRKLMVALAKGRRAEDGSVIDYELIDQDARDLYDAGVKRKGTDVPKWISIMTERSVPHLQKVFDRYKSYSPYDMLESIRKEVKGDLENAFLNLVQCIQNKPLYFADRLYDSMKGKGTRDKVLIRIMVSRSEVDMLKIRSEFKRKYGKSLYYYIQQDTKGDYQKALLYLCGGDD
T1 sequence (P60903 whole entry, chain 2 of 2): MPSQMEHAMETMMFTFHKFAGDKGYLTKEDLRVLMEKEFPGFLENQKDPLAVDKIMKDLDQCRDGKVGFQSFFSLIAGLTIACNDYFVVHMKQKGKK

[6] = biological target: T2, recombinant annexin A2 (human, UniProt P07355 1-339); assay: electron paramagnetic resonance (EPR) spectroscopy; settings: both partners purified
T2 construct: also called ANXA2; annexin A2 subunit
T2 sequence (P07355 whole entry): as the sequence (P07355 whole entry, chain 1 of 2) above

[7] = biological target: T3, recombinant S100A10 (human, UniProt P60903 1-97); assay: electron paramagnetic resonance (EPR) spectroscopy; settings: both partners purified
T3 construct: also called S100A10 subunit; p11; source: E. coli BL21(DE3), pET23A vector, purified
T3 sequence (P60903 whole entry): as the sequence (P60903 whole entry, chain 2 of 2) above

[8] = biological target: T1, annexin A2 heterotetramer (A2t), …; assay: electron paramagnetic resonance (EPR) spectroscopy; paramagnetic-labeled peptide (20 µM) mixed with protein (100 µM) in 10 µL HEPES buffer (20 mM HEPES pH 7.4, 100 mM NaCl) in glass capillaries, room temperature; percent bound from subtraction of the free-peptide spectrum and double integration; 'relative' binding constant K = [AB]/[A][B]; settings: both partners purified
[9] = biological target: T2, recombinant annexin A2; assay: as above; settings: both partners purified
[10] = biological target: T3, recombinant S100A10; assay: as above; settings: both partners purified
[11] = biological target: T4, cysteine-blocked S100A10 (αCys-S100A10) (human, UniProt P60903 1-97); assay: as above; settings: both partners purified
T4 construct: source: E. coli BL21(DE3), purified, then treated with R1′ and gel filtered
T4 sequence (P60903 whole entry): as the sequence (P60903 whole entry, chain 2 of 2) above

[12] = biological target: T1, annexin A2 heterotetramer (A2t), …; assay: cell-based or functional assay

C-IVS-IESPVSDTALGTPEIFVSA [ScrL2, scrambled version of the L2_108–126 peptide, reference compound]
competition for L2_108–126 – A2t interaction [1]: No significant changes in spectra signal were observed
competition for L2 peptide – annexin A2 interaction [2]: partially competed off
relative % bound to cysteine-blocked S100A10 ([3]; S100A10 cysteine-blocked with R1′ (αCys-S100A10), paramagnetic-labeled peptide, mean of three separate experiments): 6.3%
competition for L2 peptide – S100A10 interaction ([3]; scrambled competitor 5∶1): minimally competed off

L2_108–120: L2_108–120 peptide of ref 28 (LVEETSFIDAGAP; UniProt P03107 108-120, looked up, fragment)
reduction of infection of COS-1 cells [4]: approximately 60%

B1: HPV16 L2_(108–126) peptide, paramagnetic-labeled (C-IVS-LVEETSFIDAGAPTSVPSI) (peptide)
peptide: CIVSLVEETSFIDAGAPTSVPSI
modifications: also: paramagnetic label, site not given here
notes: source: synthetic peptide (Synthetic Biomolecules or Biomer Technology), HPLC purified to >95%
percent of peptide bound with ScrL2 at 5:1 [5]: 75.8%
percent of peptide bound with ScrL2 at 5:1 [6]: 17.7%
percent of peptide bound with ScrL2 at 5:1 [7]: 91%
Ka [8]: 100000 M⁻¹
percent of peptide bound [8]: 78%
percent of peptide bound [9]: 23.6%
Ka [10]: 150000 M⁻¹
percent of peptide bound [10]: 92.5%
percent of peptide bound [11]: 73.1%

B2: HPV16 L1–L2(GGDD) mutant pseudovirions (complex, human papillomavirus type 16)
chain 1: MSLWLPSEATVYLPPVPVSKVVSTDEYVARTNIYYHAGTSRLLAVGHPYFPIKKPNNNKILVPKVSGLQYRVFRIHLPDPNKFGFPDTSFYNPDTQRLVWACVGVEVGRGQPLGVGISGHPLLNKLDDTENASAYAANAGVDNRECISMDYKQTQLCLIGCKPPIGEHWGKGSPCTNVAVNPGDCPPLELINTVIQDGDMVDTGFGAMDFTTLQANKSEVPLDICTSICKYPDYIKMVSEPYGDSLFFYLRREQMFVRHLFNRAGAVGENVPDDLYIKGSGSTANLASSNYFPTPSGSMVTSDAQIFNKPYWLQRAQGHNNGICWGNQLFVTVVDTTRSTNMSLCAAISTSETTYKNTNFKEYLRHGEEYDLQFIFQLCKITLTADVMTYIHSMNSTILEDWNFGLQPPPGGTLEDTYRFVTSQAIACQKHTPPAPKEDPLKKYTFWEVNLKEKFSADLDQFPLGRKFLLQAGLKAKPKFTLGKRKATPTTSSTSTTAKRKKRKL
chain 2: MRHKRSAKRTKRASATQLYKTCKQAGTCPPDIIPKVEGKTIAEQILQYGSMGVFFGGLGIGTGSGTGGRTGYIPLGTRPPTATDTLAPVRPPLTVDPVGPSDPSIVSGGDDTSFIDAGAPTSVPSIPPDVSGFSITTSTDTTPAILDINNTVTTVTTHNNPTFTDPSVLQPPTPAETGGHFTLSSSTISTHNYEEIPMDTFIVSTNPNTVTSSTPIPGSRPVARLGLYSRTTQQVKVVDPAFVTTPTKLITYDNPAYEGIDVDNTLYFSSNDNSINIAPDPDFLDIVALHRPALTSRRTGIRYSRIGNKQTLRTRSGKSIGAKVHYYYDLSTIDPAEEIELQTITPSTYTTTSHAASPTSINNGLYDIYADDFITDTSTTPVPSVPSTSLSGYIPANTTIPFGGAYNIPLVSGPDIPINITDQAPSLIPIVPGSPQYTIIADAGDFYLHPSYYMLRKRRKRLPYFFSDVSLAA
pseudo-infection of HaCaT cells (percent GFP-positive, 48 h) by the mutant PsV against wild-type PsV [12]: > 10 fold reduction
